As usually defined, the IC50 is the concentration at which inhibition is half-maximal. Lower therefore signals higher potency. Broadly, the Kd is a measure of binding affinity in units of concentration. A low value points to higher affinity.

The values below come from patent US20210355194A1.

Where two headings read alike, the source gives them in different places.

What all share (settings): remark: other sources report otherwise
In assay [1] the target is SARS-COV2-S1 RBD (mouse IgG2Fc tag) (SARS-CoV-2), P0DTC2. Kind of assay: FACS, S1 RBD-mFc on Vero E6 (ACE2). For orientation: Flow cytometry measures light scatter and fluorescence of single cells or particles in a stream.
The target is the same in assay [2]. Kind of assay: FACS, blocks S1 RBD-mFc binding to ACE2 on Vero E6.
Assay [3] has the same target. Nature of the assay: column not explained; likely FACS, S1 RBD on Vero E6.
Assay [4] shares this target.
Assay [5] addresses T1, CV S-protein construct 6 trimer TP31001F (SARS-CoV-2), P0DTC2. Kind of assay: SPR. A general note: Surface plasmon resonance follows binding to a sensor surface in real time, without labels.
In assay [6] the target is T1, CV S-protein construct 6 trimer …. Nature of the assay: SPR. The source holds these as a separate data set.
Assay [7] has as its target SARS-COV2-S1 RBD (mouse IgG2Fc tag) (SARS-CoV-2), P0DTC2. The source holds these as a separate data set.

B1: variant 6-3 (Fc fusion)
VHH: EVQLVESGGGLVQPGGSLRLSCAASGFTFSPSWMGWFRQAPGKEREFVATINEYGGRNYADSVKGRFTISADNSKNTAYLQMNSLKPEDTAVYYCARVDRDFDYWGQGTLVTVSS
In assay [1], B1 displayed a Competition Factor of 9.51. Further, the IC50 in assay [2] is 0.74 nM. Besides, the MFI Fold Decrease in assay [3] was found to be 9.51 fold.

B2: variant 6-81 (Fc fusion)
VHH: EVQLVESGGGLVQPGGSLRLSCAASGFIGNYHAMGWFRQAPGKEREFVAAVTWSGGTTNYADSVKGRFTISADNSKNTAYLQMNSLKPEDTAVYYCAREGYYYDSSGYPYYFDYWGQGTLVTVSS
In the case of B2, the IC50 in assay [4] is 1.38 nM. Besides, the dissociation constant (Kd) in assay [5] and in assay [6] was 3.9 nM each time.

B3: variant 5-50 (Fc fusion)
VHH: EVQLVESGGGLVQPGGSLRLSCAASGFSLDYYGMGWFRQAPGKEREFVAAITSGGTPHYADSVKGRFTISADNSKNTAYLQMNSLKPEDTAVYYCASAYNPGIGYDWGQGTLVTVSS
B3: the IC50 in assay [7] was 1.61 nM. In assay [5], this molecule had a Kd of 3.8 nM.
